One protein from paper PMC4768246, “A novel cold-adapted and highly salt-tolerant esterase from Alkalibacterium sp. SL3 from the sediment of a soda lake” (Scientific Reports, 2016) can be followed below.

Substrate in this data set: CC(=O)Oc1ccc([N+](=O)[O-])cc1
The data set is described as follows: purified protein. The format is biochemical, Alkalibacterium sp. SL3. Conditions: 50 mM Tris-HCl pH 9.0, 30 °C, 5 min, 0.05–5 mM substrate.

What is called Km is the substrate concentration at which the rate is half of its maximum. A word on the kcat: it is the number of substrate molecules converted per active site and unit of time at saturation.

B1: EstSL3 (rEstSL3) (Alkalibacterium sp. SL3) (protein)
chain: MKINKNDTLLFIGDSITDVGRDRMDGEDLGKGFPLMVASHLQSRYPAKRLTVLNRGIGGDSLKDLKRRWEDDCLITNPDIVTLLIGVNDTWRNQNDGVELTDEELDEFESDYRFLLKSLHQRTDARVILMESFVLPYPKRRVGWRNDLDKRIQIVRKMARDYQTELIPLDGLLNAAGIRDGFSYYTGDDGVHPTVAGHGLIANSWLKAVDE
notes: His6-tagged from pET-28a(+) (NcoI-HindIII), E. coli BL21(DE3), Ni-NTA; internal peptides LTVLNRGIGGDSLKDLK, TDARVILMESFVLPYPKR, VGWRNDLDK; catalytic Ser15, Asp189, His192
Turning to B1, the Km was 150 ± 10 µM and the kcat amounted to 307.69 s⁻¹.
